Measurements: patent publication US9644034B2, “Anti-RSPO2 antibodies and uses thereof” (OncoMed Pharmaceuticals, Inc., priority 2011, dated 2017)
Each block holds one molecule with its values, some of them ahead of it.

How the values were obtained:
human RSPO1 [1] = molecular target: T1, human RSPO1 (Homo sapiens, UniProt Q2MKA7); assay: FACS screening of hybridoma supernatants on HEK-293 cells expressing FLAG-RSPO1furin-CD4TM-GFP; format: binding
T1 construct: followed by the two furin-like domains of RSPO1 (aa 34-135); expressed in transfected cells; host or cells: HEK-293
T1 sequence (Q2MKA7 34-135): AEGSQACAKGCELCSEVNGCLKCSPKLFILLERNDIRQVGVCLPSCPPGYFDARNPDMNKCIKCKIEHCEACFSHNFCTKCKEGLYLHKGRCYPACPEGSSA
Source text: Antibodies were generated against recombinant human RSPO1 protein amino acids 31-263 (R&D Systems, Minneapolis, Minn.). Mice (n=3) were immunized with RSPO1 protein using standard techniques. Sera from individual mice were screened against RSPO1 approximately 70 days after initial immunization using FACS analysis. The animal with the highest antibody titer was selected for final antigen boost after which spleen cells were isolated for hybridoma production. SP2/0 cells were used as fusion partners for the mouse spleen cells. Hybridoma cells were plated at 1 cell per well in 96 well plates, and the supernatants were screened against human RSPO1 by FACS analysis.
For FACS screening of anti-RSPO1 antibodies a chimeric fusion protein enabling cell surface expression of the N-terminal furin-like domains of human RSPO1 was constructed.
HEK-293 cells were transfected with FLAG-RSPOlfurin-CD4TM-GFP. After 48 hours, transfected cells were suspended in ice cold PBS containing 2% FBS and heparin and incubated on ice in the presence of 50 μl of hybridoma supernatants for 30 minutes. A second incubation with 100 μl PE-conjugated […] secondary antibody was performed to detect cells bound by antibody. Cells were incubated with an anti-FLAG antibody (Sigma-Aldrich, St. Louis, Mo.) as a positive control and an anti-PE antibody as a negative control. The cells were analyzed on a FACSCalibur instrument (BD Biosciences, San Jose, Calif.) and the data was processed using FlowJo software.

[2] = test system: RSPO1-induced β-catenin signaling; assay: TOPflash luciferase assay in HEK-293 cells, Wnt3a plus human RSPO1; format: cell-based; conditions: Wnt3a 5 ng/ml, RSPO1 10 ng/ml; antibodies 10 to 0.625 μg/ml
Experimental: HEK-293 cells were transfected with a 6×TCF-luciferase reporter vector (TOPflash, Millipore, Billerica, Mass.). After 24-48 hrs, the transfected HEK-293 cells were incubated with a combination of Wnt3a (5 ng/ml) and human RSPO1 (10 ng/ml, R&D BioSystems) in the presence of anti-RSPO1 antibodies 89M2, 89M4, 89M5, 89M7, 89M19, and 89M25, or 2 irrelevant control antibodies 254M14 and 254M26 (2-fold dilutions at 10 μg/ml to 0.625 μg/ml). The cells were incubated for 16 hours and luciferase activity was measured using Steady-Glo® Luciferase Assay System according to the manufacturer's instructions (Promega, Madison, Wis.).

binding of RSPO1 to LGR5 = molecular target: T2, binding of RSPO1 to LGR5 (Homo sapiens, UniProt Q2MKA7); assay: FACS: blocking of soluble RSPO1-Fc binding to LGR5 on HEK-293 cells; conditions: RSPO1-Fc 10 μg/ml, antibodies 10 μg/ml
T2 construct: full-length human RSPO1, RSPO2, RSPO3 and RSPO4 were ligated in-frame to a human Fc region; made in house; host or cells: RSPO1-Fc: insect cells (baculovirus); LGR5 construct: transiently transfected HEK-293
T2 sequence (Q2MKA7 21-263): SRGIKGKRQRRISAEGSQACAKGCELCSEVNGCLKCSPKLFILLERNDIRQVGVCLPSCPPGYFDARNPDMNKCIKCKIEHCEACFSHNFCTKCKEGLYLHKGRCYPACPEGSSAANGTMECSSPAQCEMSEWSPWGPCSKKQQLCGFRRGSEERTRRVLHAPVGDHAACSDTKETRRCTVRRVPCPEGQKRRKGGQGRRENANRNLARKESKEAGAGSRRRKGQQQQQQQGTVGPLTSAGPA
Experimental: HEK-293 cells were transiently transfected with the FLAG-LGR5-CD4TM-GFP construct (previously described in Example 2). After 48 hours, transfected cells were suspended in ice cold PBS containing 2% FBS and heparin and incubated on ice in the presence of RSPO1-Fc protein (10 μg/ml) and antibodies 89M2, 89M4, 89M5, 89M7, 89M19 or 89M25 (10 μg/ml). A second incubation with 100 μl PE-conjugated anti-human Fc secondary antibody was performed to detect cells bound by the RSPO1-Fc fusion protein. The cells were analyzed on a FACSCalibur instrument (BD Biosciences, San Jose, Calif.) and the data was processed using FlowJo software.

OV19 ovarian tumor cells = assay: OV19 ovarian tumor xenograft growth in NOD/SCID mice; format: in vivo; conditions: day 35, vs control antibody; antibodies 15 mg/kg once a week, intraperitoneal
Experimental: Dissociated OV19 ovarian tumor cells (1×10^5cells) were injected in the mammary fat pads of 6-8 week old NOD/SCID mice. Tumors were allowed to grow for 45 days until they reached an average volume of 134 mm^3. The mice were randomized (n=10 per group) and treated with anti-RSPO1 antibody 89M5, 89M25, taxol, a combination of 89M5 and taxol, a combination of 89M25 and taxol, or control antibody 1B7.11. Antibodies were dosed at 15 mg/kg once a week, and taxol was dosed at […] once a week. Administration of the antibodies and taxol was performed via injection into the intraperitoneal cavity. Tumor growth was monitored and tumor volumes were measured with electronic calipers at the indicated time points. Data are expressed as mean±S.E.M.

LGR5 = molecular target: T3, LGR5 (Homo sapiens, UniProt O75473); assay: FACS binding of RSPO-Fc fusion proteins to LGR5 expressed on HEK-293 cells; conditions: Fc fusion proteins 10 μg/ml
T3 construct: ligating amino acids 22-564 of human LGR5 to an N-terminal FLAG tag; expressed in transfected cells; host or cells: HEK-293
T3 sequence (O75473 22-564): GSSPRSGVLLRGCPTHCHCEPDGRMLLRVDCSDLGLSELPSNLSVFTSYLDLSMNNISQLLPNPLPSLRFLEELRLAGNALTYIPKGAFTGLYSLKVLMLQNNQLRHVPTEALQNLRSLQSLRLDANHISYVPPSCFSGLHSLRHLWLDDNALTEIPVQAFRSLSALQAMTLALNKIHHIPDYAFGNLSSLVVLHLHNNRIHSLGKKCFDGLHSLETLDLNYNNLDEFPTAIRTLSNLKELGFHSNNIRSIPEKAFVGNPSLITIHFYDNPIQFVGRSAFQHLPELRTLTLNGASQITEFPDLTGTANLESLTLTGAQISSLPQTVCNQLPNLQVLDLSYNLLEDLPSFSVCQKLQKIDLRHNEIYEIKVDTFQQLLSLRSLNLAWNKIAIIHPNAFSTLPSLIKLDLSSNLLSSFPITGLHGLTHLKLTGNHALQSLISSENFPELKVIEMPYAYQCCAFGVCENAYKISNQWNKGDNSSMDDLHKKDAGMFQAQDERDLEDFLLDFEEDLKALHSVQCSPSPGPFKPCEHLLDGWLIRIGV
Source text: A cell surface LGR5 protein was generated by ligating amino acids 22-564 of human LGR5 to an N-terminal FLAG tag and to the transmembrane domain of CD4 and a C-terminal GFP protein tag using standard recombinant DNA techniques (FLAG-LGR5-CD4TM-GFP). RSPO-Fc constructs were generated using standard recombinant DNA techniques. Specifically, full-length human RSPO1, RSPO2, RSPO3 and RSPO4 were ligated in-frame to a human Fc region and the recombinant RSPO-Fc proteins were expressed in insect cells using baculovirus. The fusion proteins were purified from the insect medium using protein A chromatography.
HEK-293 cells were transiently transfected with the FLAG-LGR5-CD4TM-GFP construct. After 48 hours, transfected cells were suspended in ice cold PBS containing 2% FBS and heparin and incubated on ice in the presence of 10 μg/ml RSPO1-Fc, RSPO2-Fc, RSPO3-Fc, RSPO4-Fc, or FZD8-Fc fusion proteins for 15 minutes. A second incubation with 100 μl PE-conjugated anti-human Fc secondary antibody was performed to detect cells bound by the Fc fusion proteins. Cells were incubated with an anti-FLAG antibody (Sigma-Aldrich, St. Louis, Mo.) as a positive control and with an anti-PE antibody as a negative control. The cells were analyzed on a FACSCalibur instrument (BD Biosciences, San Jose, Calif.) and the data was processed using FlowJo software.

human RSPO1 [3] = molecular target: T1, human RSPO1; assay: FACS binding of 89M5 and humanized 89M5 to HEK293 cells expressing FLAG-RSPO1furin-CD4TM-GFP; conditions: five-fold serial dilutions
Experimental: HEK293 cells were transiently transfected with an expression vector encoding FLAG-RSPO1furin-CD4TM-GFP. As described in Example 5, FLAG-RSPO1furin-CD4TM-GFP is a chimeric fusion protein enabling cell surface expression of the N-terminal furin-like domains of human RSPO1. FLAG-RSPO1 furin-CD4TM-GFP transfected cells were incubated in the presence of anti-RSPO1 antibody 89M5 or humanized anti-RSPO1 antibody h89M5-H2L2. Five-fold serial dilutions of each antibody were examined for their ability to bind to the RSPO1 expressing cells. The cells were stained with Phycoerythrin conjugated anti-IgG to reveal bound antibody. The cells were analyzed on a FACSCalibur instrument (BD Biosciences, San Jose, Calif.) and the data was processed using FlowJo software.

- binding to LGR5 expressed on the surface of HEK-293 cells (LGR5): bound
B3: RSPO4: full-length human RSPO4 ligated to a human Fc region (protein)
chain: LNRRKKQVGTGLGGNCTGCIICSEENGCSTCQQRLFLFIRREGIRQYGKCLHDCPPGYFGIRGQEVNRCKKCGATCESCFSQDFCIRCKRQFYLYKGKCLPTCPPGTLAHQNTRECQGECELGPWGGWSPCTHNGKTCGSAWGLESRVREAGRAGHEEAATCQVLSESRKCPIQRPCPGERSPGQKKGRKDRRPRKDRKLDRRLDVRPRQPGLQP
modifications: left off: a dimerising Fc or GST
notes: full-length human RSPO4 ligated to a human Fc region

- binding to human RSPO1 (FACS) (human RSPO1 [3]): bind
B4: h89M5-H2L2: humanized anti-RSPO1 antibody; heavy chain SEQ ID NO:68, light chain SEQ ID NO:69 (antibody)
heavy: QVQLVQSGAEVKKPGASVKVSCKTSGYTFTGYTMHWVRQAPGQRLEWMGGINPNNGGTTYNQNFKGRVTITRDTSASTAYMELSSLRSEDTAVYYCARKEFSDGYYFFAYWGQGTLVTVSSASTKGPSVFPLAPCSRSTSESTAALGCLVKDYFPEPVTVSWNSGALTSGVHTFPAVLQSSGLYSLSSVVTVPSSNFGTQTYTCNVDHKPSNTKVDKTVERKCCVECPPCPAPPVAGPSVFLFPPKPKDTLMISRTPEVTCVVVDVSHEDPEVQFNWYVDGVEVHNAKTKPREEQFNSTFRVVSVLTVVHQDWLNGKEYKCKVSNKGLPAPIEKTISKTKGQPREPQVYTLPPSREEMTKNQVSLTCLVKGFYPSDIAVEWESNGQPENNYKTTPPMLDSDGSFFLYSKLTVDKSRWQQGNVFSCSVMHEALHNHYTQKSLSLSPGK
light: DIQMTQSPSSLSASVGDRVTITCKASQDVIFAVAWYQQKPGKAPKLLIYWASTRHTGVPSRFSGSGSGTDYTLTISSLQPEDFATYYCQQHYSTPWTFGGGTKVEIKRTVAAPSVFIFPPSDEQLKSGTASVVCLLNNFYPREAKVQWKVDNALQSGNSQESVTEQDSKDSTYSLSNTLTLSKADYEKHKVYACEVTHQGLSSPVTKSFNRGEC
modifications: h89M5-H2L2 Heavy chain amino acid sequence; h89M5-H2L2 Light chain amino acid sequence

Continued, molecule first:

B1: 89M25: anti-RSPO1 monoclonal antibody; same heavy and light chain variable regions as 89M5 (antibody, V domains shown)
VH: EVQLQQSGPELVKPGASVKISCKTSGYTFTGYTMHWVRQSHGKTLEWIGGINPNNGGTTYNQNFKGKATLTVEKSSTTAYLELRSLTSEDSALYYCARKEFSDGYYFFAYWGQGTLVTVSA
VL: DIVMTQSHKFMSTSVGDRVNITCKASQDVIFAVAWYQQKPGQSPKLLIYWASTRHTGVPDRFTGSVSGTDYTLTISSVQAEDLALYYCQQHYSTPWTFGGGTKLEIK
- binding to RSPO1 (FACS) (human RSPO1 [1]): bound
- blocking of RSPO1-induced β-catenin signaling [2]: blocked
- blocking of binding of RSPO1 to LGR5 (binding of RSPO1 to LGR5): blocked
- reduction in tumor growth (OV19 ovarian tumor cells): 25%

B2: RSPO3: full-length human RSPO3 ligated to a human Fc region (protein)
chain: QNASRGRRQRRMHPNVSQGCQGGCATCSDYNGCLSCKPRLFFALERIGMKQIGVCLSSCPSGYYGTRYPDINKCTKCKADCDTCFNKNFCTKCKSGFYLHLGKCLDNCPEGLEANNHTMECVSIVHCEVSEWNPWSPCTKKGKTCGFKRGTETRVREIIQHPSAKGNLCPPTNETRKCTVQRKKCQKGERGKKGRERKRKKPNKGESKEAIPDSKSLESSKEIPEQRENKQQQKKRKVQDKQKSVSVSTVH
- binding to LGR5 expressed on the surface of HEK-293 cells (LGR5): bound
